The values below come from patent publication US20110105394A1 (Novo Nordisk, published 2011).

For this assay, the target named is T1, Amylin 3(a) receptor (human calcitonin receptor (CTa) with RAMP-3) (human, UniProt P30988 25-474; O60896 24-148, limits assumed).
T1 sequence (looked up) 1: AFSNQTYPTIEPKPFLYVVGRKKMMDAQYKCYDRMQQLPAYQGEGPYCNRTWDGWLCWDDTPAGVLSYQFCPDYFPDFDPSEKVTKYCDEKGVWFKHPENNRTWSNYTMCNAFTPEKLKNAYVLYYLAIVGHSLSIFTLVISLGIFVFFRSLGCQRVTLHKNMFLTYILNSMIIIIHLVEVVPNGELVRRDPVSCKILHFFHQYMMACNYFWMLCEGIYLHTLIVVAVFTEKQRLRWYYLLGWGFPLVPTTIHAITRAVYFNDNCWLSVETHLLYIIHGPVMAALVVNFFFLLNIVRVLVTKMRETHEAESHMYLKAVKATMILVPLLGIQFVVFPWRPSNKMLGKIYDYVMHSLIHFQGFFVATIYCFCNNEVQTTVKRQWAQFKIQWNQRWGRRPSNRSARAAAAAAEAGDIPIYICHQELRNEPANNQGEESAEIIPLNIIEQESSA
T1 sequence (looked up) 2: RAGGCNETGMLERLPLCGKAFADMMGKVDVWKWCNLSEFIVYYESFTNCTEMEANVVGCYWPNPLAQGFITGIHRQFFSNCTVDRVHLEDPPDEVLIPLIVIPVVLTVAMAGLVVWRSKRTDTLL
Kind of assay: cell-based or functional assay.

*1 amine or outer side, *2 acyl side, *3 side chain or, on linkers, in order; H or OH if unused. Bridges are numbered along the chain shown (N, C = ends). Where no end group is shown, it is not given here. The star is where a group is joined. X2 = (S)‑4‑Carboxy‑4‑(19-carboxynonadecanoylamino)butyryl, O=C(O)CCCCCCCCCCCCCCCCCCC(=O)N[C@@H](CCC(=O)*)C(=O)O; C20 diacid = O=C(O)CCCCCCCCCCCCCCCCCCC(=O)*; C18 diacid = O=C(O)CCCCCCCCCCCCCCCCC(=O)*; γGlu = O=C(O)[C@H](CCC(=O)[*:2])N[*:1]; AEEA = NCCOCCOCC(=O)O

B1: N-alpha-[2-(2-{2-[2-(2-{2-[(S)-4-Carboxy-4-(17-carboxyheptadecanoylamino)butyrylamino]ethoxy}ethoxy)acetylamino]ethoxy}ethoxy)acetyl][Arg1,His17]-pramlintide (peptide)
peptide: {C18 diacid-γGlu-AEEA-AEEA}-RCNTATCATQRLANFLHHSSNNFGPILPPTNVGSNTY-NH2
modifications: disulfide 2-7
SMILES: CC[C@H](C)[C@H](NC(=O)[C@@H]1CCCN1C(=O)CNC(=O)[C@H](Cc1ccccc1)NC(=O)[C@H](CC(N)=O)NC(=O)[C@H](CC(N)=O)NC(=O)[C@H](CO)NC(=O)[C@H](CO)NC(=O)[C@H](Cc1c[nH]cn1)NC(=O)[C@H](Cc1c[nH]cn1)NC(=O)[C@H](CC(C)C)NC(=O)[C@H](Cc1ccccc1)NC(=O)[C@H](CC(N)=O)NC(=O)[C@H](C)NC(=O)[C@H](CC(C)C)NC(=O)[C@H](CCCNC(=N)N)NC(=O)[C@H](CCC(N)=O)NC(=O)[C@@H](NC(=O)[C@H](C)NC(=O)[C@@H]1CSSC[C@H](NC(=O)[C@H](CCCNC(=N)N)NC(=O)COCCOCCNC(=O)COCCOCCNC(=O)CC[C@H](NC(=O)CCCCCCCCCCCCCCCCC(=O)O)C(=O)O)C(=O)N[C@@H](CC(N)=O)C(=O)N[C@@H]([C@@H](C)O)C(=O)N[C@@H](C)C(=O)N[C@@H]([C@@H](C)O)C(=O)N1)[C@@H](C)O)C(=O)N[C@@H](CC(C)C)C(=O)N1CCC[C@H]1C(=O)N1CCC[C@H]1C(=O)N[C@H](C(=O)N[C@@H](CC(N)=O)C(=O)N[C@H](C(=O)NCC(=O)N[C@@H](CO)C(=O)N[C@@H](CC(N)=O)C(=O)N[C@H](C(=O)N[C@@H](Cc1ccc(O)cc1)C(N)=O)[C@@H](C)O)C(C)C)[C@@H](C)O
As for B1, the “Potency Luciferase” value worked out at 0.03 nM.

B2: N-alpha-[(S)-4-Carboxy-4-(19-carboxynonadecanoylamino)butyryl]-Glu-Arg-[Glu1,Arg17,Ala25,Pro26,Ser28,Ser29]-pramlintide (peptide)
peptide: X2-ERECNTATCATQRLANFLRHSSNNFGAPLSSTNVGSNTY-NH2
modifications: disulfide 4-9
SMILES: CC(C)C[C@H](NC(=O)[C@H](CCCNC(=N)N)NC(=O)[C@H](CCC(N)=O)NC(=O)[C@@H](NC(=O)[C@H](C)NC(=O)[C@@H]1CSSC[C@H](NC(=O)[C@H](CCC(=O)O)NC(=O)[C@H](CCCNC(=N)N)NC(=O)[C@H](CCC(=O)O)NC(=O)CC[C@H](NC(=O)CCCCCCCCCCCCCCCCCCC(=O)O)C(=O)O)C(=O)N[C@@H](CC(N)=O)C(=O)N[C@@H]([C@@H](C)O)C(=O)N[C@@H](C)C(=O)N[C@@H]([C@@H](C)O)C(=O)N1)[C@@H](C)O)C(=O)N[C@@H](C)C(=O)N[C@@H](CC(N)=O)C(=O)N[C@@H](Cc1ccccc1)C(=O)N[C@@H](CC(C)C)C(=O)N[C@@H](CCCNC(=N)N)C(=O)N[C@@H](Cc1c[nH]cn1)C(=O)N[C@@H](CO)C(=O)N[C@@H](CO)C(=O)N[C@@H](CC(N)=O)C(=O)N[C@@H](CC(N)=O)C(=O)N[C@@H](Cc1ccccc1)C(=O)NCC(=O)N[C@@H](C)C(=O)N1CCC[C@H]1C(=O)N[C@@H](CC(C)C)C(=O)N[C@@H](CO)C(=O)N[C@@H](CO)C(=O)N[C@H](C(=O)N[C@@H](CC(N)=O)C(=O)N[C@H](C(=O)NCC(=O)N[C@@H](CO)C(=O)N[C@@H](CC(N)=O)C(=O)N[C@H](C(=O)N[C@@H](Cc1ccc(O)cc1)C(N)=O)[C@@H](C)O)C(C)C)[C@@H](C)O
Consider B2, for which the “Potency Luciferase” value stood at 0.2 nM.

B3: N-alpha-[(S)-4-Carboxy-4-(19-carboxynonadecanoylamino)butyryl]-[Asp14,His17]-pramlintide (2-37) (peptide)
peptide: {C20 diacid-γGlu}-CNTATCATQRLADFLHHSSNNFGPILPPTNVGSNTY-NH2
modifications: disulfide 1-6
SMILES: CC[C@H](C)[C@H](NC(=O)[C@@H]1CCCN1C(=O)CNC(=O)[C@H](Cc1ccccc1)NC(=O)[C@H](CC(N)=O)NC(=O)[C@H](CC(N)=O)NC(=O)[C@H](CO)NC(=O)[C@H](CO)NC(=O)[C@H](Cc1c[nH]cn1)NC(=O)[C@H](Cc1c[nH]cn1)NC(=O)[C@H](CC(C)C)NC(=O)[C@H](Cc1ccccc1)NC(=O)[C@H](CC(=O)O)NC(=O)[C@H](C)NC(=O)[C@H](CC(C)C)NC(=O)[C@H](CCCNC(=N)N)NC(=O)[C@H](CCC(N)=O)NC(=O)[C@@H](NC(=O)[C@H](C)NC(=O)[C@@H]1CSSC[C@H](NC(=O)CC[C@H](NC(=O)CCCCCCCCCCCCCCCCCCC(=O)O)C(=O)O)C(=O)N[C@@H](CC(N)=O)C(=O)N[C@@H]([C@@H](C)O)C(=O)N[C@@H](C)C(=O)N[C@@H]([C@@H](C)O)C(=O)N1)[C@@H](C)O)C(=O)N[C@@H](CC(C)C)C(=O)N1CCC[C@H]1C(=O)N1CCC[C@H]1C(=O)N[C@H](C(=O)N[C@@H](CC(N)=O)C(=O)N[C@H](C(=O)NCC(=O)N[C@@H](CO)C(=O)N[C@@H](CC(N)=O)C(=O)N[C@H](C(=O)N[C@@H](Cc1ccc(O)cc1)C(N)=O)[C@@H](C)O)C(C)C)[C@@H](C)O
For the molecule B3, the “Potency Luciferase” value was found to be 0.1 nM.

B4: N-alpha-[(S)-4-Carboxy-4-(19-carboxynonadecanoylamino)butyryl]-His-[His1,His17,Arg18]-pramlintide (peptide)
peptide: HHCNTATCATQRLANFLHRSSNNFGPILPPTNVGSNTY-NH2
modifications: disulfide 3-8; not fully specified (N-terminus); printed as N-alpha-[(S)-4-Carboxy-4-(19-carboxynonadecanoylamino)butyryl]-His-[His1,His17,Arg18]-pramlintide
In the case of B4, the “Potency Luciferase” value stood at 0.2 nM.

B5: N-alpha-[(S)-4-Carboxy-4-(19-carboxynonadecanoylamino)butyryl]-Glu-Arg-[Glu1,Asp14,His17,Gln21,Ala25,Pro26,Ser28,Ser29]-pramlintide (peptide)
peptide: X2-ERECNTATCATQRLADFLHHSSQNFGAPLSSTNVGSNTY-NH2
modifications: disulfide 4-9
SMILES: CC(C)C[C@H](NC(=O)[C@H](CCCNC(=N)N)NC(=O)[C@H](CCC(N)=O)NC(=O)[C@@H](NC(=O)[C@H](C)NC(=O)[C@@H]1CSSC[C@H](NC(=O)[C@H](CCC(=O)O)NC(=O)[C@H](CCCNC(=N)N)NC(=O)[C@H](CCC(=O)O)NC(=O)CC[C@H](NC(=O)CCCCCCCCCCCCCCCCCCC(=O)O)C(=O)O)C(=O)N[C@@H](CC(N)=O)C(=O)N[C@@H]([C@@H](C)O)C(=O)N[C@@H](C)C(=O)N[C@@H]([C@@H](C)O)C(=O)N1)[C@@H](C)O)C(=O)N[C@@H](C)C(=O)N[C@@H](CC(=O)O)C(=O)N[C@@H](Cc1ccccc1)C(=O)N[C@@H](CC(C)C)C(=O)N[C@@H](Cc1c[nH]cn1)C(=O)N[C@@H](Cc1c[nH]cn1)C(=O)N[C@@H](CO)C(=O)N[C@@H](CO)C(=O)N[C@@H](CCC(N)=O)C(=O)N[C@@H](CC(N)=O)C(=O)N[C@@H](Cc1ccccc1)C(=O)NCC(=O)N[C@@H](C)C(=O)N1CCC[C@H]1C(=O)N[C@@H](CC(C)C)C(=O)N[C@@H](CO)C(=O)N[C@@H](CO)C(=O)N[C@H](C(=O)N[C@@H](CC(N)=O)C(=O)N[C@H](C(=O)NCC(=O)N[C@@H](CO)C(=O)N[C@@H](CC(N)=O)C(=O)N[C@H](C(=O)N[C@@H](Cc1ccc(O)cc1)C(N)=O)[C@@H](C)O)C(C)C)[C@@H](C)O
B5: the “Potency Luciferase” value was found to be 0.06 nM.

B6: N-alpha-[(S)-4-Carboxy-4-(19-carboxynonadecanoylamino)butyryl]-Glu-[Glu1,Arg17]-pramlintide (peptide)
peptide: EECNTATCATQRLANFLRHSSNNFGPILPPTNVGSNTY-NH2
modifications: disulfide 3-8; not fully specified (N-terminus); printed as N-alpha-[(S)-4-Carboxy-4-(19-carboxynonadecanoylamino)butyryl]-Glu-[Glu1,Arg17]-pramlintide
As to B6, the “Potency Luciferase” value was determined as 0.3 nM.

B7: N-alpha-[(S)-4-Carboxy-4-(19-carboxynonadecanoylamino)butyryl]-[His17,Glu24]-pramlintide (2-37) (peptide)
peptide: {C20 diacid-γGlu}-CNTATCATQRLANFLHHSSNNFEPILPPTNVGSNTY-NH2
modifications: disulfide 1-6
SMILES: CC[C@H](C)[C@H](NC(=O)[C@@H]1CCCN1C(=O)[C@H](CCC(=O)O)NC(=O)[C@H](Cc1ccccc1)NC(=O)[C@H](CC(N)=O)NC(=O)[C@H](CC(N)=O)NC(=O)[C@H](CO)NC(=O)[C@H](CO)NC(=O)[C@H](Cc1c[nH]cn1)NC(=O)[C@H](Cc1c[nH]cn1)NC(=O)[C@H](CC(C)C)NC(=O)[C@H](Cc1ccccc1)NC(=O)[C@H](CC(N)=O)NC(=O)[C@H](C)NC(=O)[C@H](CC(C)C)NC(=O)[C@H](CCCNC(=N)N)NC(=O)[C@H](CCC(N)=O)NC(=O)[C@@H](NC(=O)[C@H](C)NC(=O)[C@@H]1CSSC[C@H](NC(=O)CC[C@H](NC(=O)CCCCCCCCCCCCCCCCCCC(=O)O)C(=O)O)C(=O)N[C@@H](CC(N)=O)C(=O)N[C@@H]([C@@H](C)O)C(=O)N[C@@H](C)C(=O)N[C@@H]([C@@H](C)O)C(=O)N1)[C@@H](C)O)C(=O)N[C@@H](CC(C)C)C(=O)N1CCC[C@H]1C(=O)N1CCC[C@H]1C(=O)N[C@H](C(=O)N[C@@H](CC(N)=O)C(=O)N[C@H](C(=O)NCC(=O)N[C@@H](CO)C(=O)N[C@@H](CC(N)=O)C(=O)N[C@H](C(=O)N[C@@H](Cc1ccc(O)cc1)C(N)=O)[C@@H](C)O)C(C)C)[C@@H](C)O
For the molecule B7, the “Potency Luciferase” value turned out to be 0.1 nM.

For the molecule {C20 diacid-γGlu}-CNTATCATQRLANFLHHSSNNFGPILPPTNVGSNTY-NH2 (disulfide 1-6) [N-alpha-[(S)-4-Carboxy-4-(19-carboxynonadecanoylamino)butyryl]-[His17]-pramlintide (2-37)], the “Potency Luciferase” value amounted to 0.1 nM.

B8: N-alpha-[(S)-4-Carboxy-4-(19-carboxynonadecanoylamino)butyryl]-Glu-[Glu1,His17]-pramlintide (peptide)
peptide: EECNTATCATQRLANFLHHSSNNFGPILPPTNVGSNTY-NH2
modifications: disulfide 3-8; not fully specified (N-terminus); printed as N-alpha-[(S)-4-Carboxy-4-(19-carboxynonadecanoylamino)butyryl]-Glu-[Glu1,His17]-pramlintide
Turning to B8, the “Potency Luciferase” value is 0.3 nM.
